The source of these data is patent publication US20220119549A1 (TAVOTEK BIOTHERAPEUTICS HONG KONG, published 2022).

In this experiment the target is T1, recombinant human TNFα (human, UniProt P01375 77-233).
T1 construct: Bought protein
As to the kind of experiment: ELISA on human TNFα.

T1 sequence (P01375 77-233 limits assumed): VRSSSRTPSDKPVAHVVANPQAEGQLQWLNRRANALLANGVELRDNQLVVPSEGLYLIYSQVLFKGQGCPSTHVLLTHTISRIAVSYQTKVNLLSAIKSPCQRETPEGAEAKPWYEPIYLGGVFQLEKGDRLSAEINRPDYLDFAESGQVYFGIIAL

B1: TAVO190197 after digestion by both MMP2 and MMP3 (antibody)
heavy: EVQLVESGGGLVQPGGSLRLSCAASGFDFADYAMHWVRQAPGKGLEWVSAITWNGGHTDYADSVKGRFTISRDNSKNTLYLQMNSLRAEDTAVYYCAKVSYLSTASSLDYWGQGTLVTVSSASTKGPSVFPLAPSSKSTSGGTAALGCLVKDYFPEPVTVSWNSGALTSGVHTFPAVLQSSGLYSLSSVVTVPSSSLGTQTYICNVNHKPSNTKVDKKVEPKSCDKTHTCPPCPAPPAAGPSVFLFPPKPKDTLMISRTPEVTCVVVDVSHEDPEVKFNWYVDGVEVHNAKTKPREEQYNSTYRVVSVLTVLHQDWLNGKEYKCKVSNKALPAPIEKTISKAKGQPREPQVYTLPPSRDELTKNQVSLTCLVKGFYPSDIAVEWESNGQPENNYKTTPPVLDSDGSFLLYSKLTVDKSRWQQGNVFSCSVLHEALHSHYTQKSLSLSPGK
light: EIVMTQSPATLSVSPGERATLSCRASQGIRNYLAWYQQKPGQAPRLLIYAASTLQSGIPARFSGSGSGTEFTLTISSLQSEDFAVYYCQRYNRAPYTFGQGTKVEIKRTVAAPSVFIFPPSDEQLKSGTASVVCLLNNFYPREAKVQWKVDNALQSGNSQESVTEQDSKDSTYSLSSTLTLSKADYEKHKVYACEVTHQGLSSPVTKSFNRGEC
notes: Both chains cut; not shown: remnant of the MMP2-cleavable linker left after cleavage; remnant of the MMP3-cleavable linker left after cleavage
Consider B1, for which the binding result is recorded as “binds”.

B2: TAVO271272 (antibody, human IgG1, kappa)
heavy: GILEECCFRSCDLALLETYCAGGGGSPLGLAGGGGGSEVQLVESGGGLVQPGGSLRLSCAASGFDFADYAMHWVRQAPGKGLEWVSAITWNGGHTDYADSVKGRFTISRDNSKNTLYLQMNSLRAEDTAVYYCAKVSYLSTASSLDYWGQGTLVTVSSASTKGPSVFPLAPSSKSTSGGTAALGCLVKDYFPEPVTVSWNSGALTSGVHTFPAVLQSSGLYSLSSVVTVPSSSLGTQTYICNVNHKPSNTKVDKKVEPKSCDKTHTCPPCPAPPAAGPSVFLFPPKPKDTLMISRTPEVTCVVVDVSHEDPEVKFNWYVDGVEVHNAKTKPREEQYNSTYRVVSVLTVLHQDWLNGKEYKCKVSNKALPAPIEKTISKAKGQPREPQVYTLPPSRDELTKNQVSLTCLVKGFYPSDIAVEWESNGQPENNYKTTPPVLDSDGSFLLYSKLTVDKSRWQQGNVFSCSVLHEALHSHYTQKSLSLSPGK
light: not shown
notes: Undigested; ADA-H2X / ADA-L1; also called anti-TNFα shielded antibody with variant IGF2-based masking domain; EAC271/EAC272
With B2, the “fold more reduced binding affinity than TAVO190191” value was determined as 8 fold.

B3: TAVO271585 (antibody, human IgG1, kappa)
heavy: GILEECCFRSCDLALLETYCAGGGGSPLGLAGGGGGSEVQLVESGGGLVQPGGSLRLSCAASGFDFADYAMHWVRQAPGKGLEWVSAITWNGGHTDYADSVKGRFTISRDNSKNTLYLQMNSLRAEDTAVYYCAKVSYLSTASSLDYWGQGTLVTVSSASTKGPSVFPLAPSSKSTSGGTAALGCLVKDYFPEPVTVSWNSGALTSGVHTFPAVLQSSGLYSLSSVVTVPSSSLGTQTYICNVNHKPSNTKVDKKVEPKSCDKTHTCPPCPAPPAAGPSVFLFPPKPKDTLMISRTPEVTCVVVDVSHEDPEVKFNWYVDGVEVHNAKTKPREEQYNSTYRVVSVLTVLHQDWLNGKEYKCKVSNKALPAPIEKTISKAKGQPREPQVYTLPPSRDELTKNQVSLTCLVKGFYPSDIAVEWESNGQPENNYKTTPPVLDSDGSFLLYSKLTVDKSRWQQGNVFSCSVLHEALHSHYTQKSLSLSPGK
light: AYRPSETLCGGELVDTLQFVCGDRGFAFGGGGSPLGLAGGGGGSDIVMTQSPDSLAVSLGERATINCRASQGIRNYLAWYQQKPGQAPKLLIYAASTLQSGVPDRFSGSGSGTDFTLTISSLQAEDVAVYYCQRYNRAPYTFGQGTKVEIKRTVAAPSVFIFPPSDEQLKSGTASVVCLLNNFYPREAKVQWKVDNALQSGNSQESVTEQDSKDSTYSLSSTLTLSKADYEKHKVYACEVTHQGLSSPVTKSFNRGEC
notes: Variant IGF2 mask; ADA-H2X / ADA-L2; also called EAC271/EAC585
On to B3, for which the binding result is “binds”.

B4: TAVO190197 (antibody, human IgG1, kappa)
heavy: GIVEECCFRSCDLALLETYCAGGGGSPLGLAGGGGGSEVQLVESGGGLVQPGGSLRLSCAASGFDFADYAMHWVRQAPGKGLEWVSAITWNGGHTDYADSVKGRFTISRDNSKNTLYLQMNSLRAEDTAVYYCAKVSYLSTASSLDYWGQGTLVTVSSASTKGPSVFPLAPSSKSTSGGTAALGCLVKDYFPEPVTVSWNSGALTSGVHTFPAVLQSSGLYSLSSVVTVPSSSLGTQTYICNVNHKPSNTKVDKKVEPKSCDKTHTCPPCPAPPAAGPSVFLFPPKPKDTLMISRTPEVTCVVVDVSHEDPEVKFNWYVDGVEVHNAKTKPREEQYNSTYRVVSVLTVLHQDWLNGKEYKCKVSNKALPAPIEKTISKAKGQPREPQVYTLPPSRDELTKNQVSLTCLVKGFYPSDIAVEWESNGQPENNYKTTPPVLDSDGSFLLYSKLTVDKSRWQQGNVFSCSVLHEALHSHYTQKSLSLSPGK
light: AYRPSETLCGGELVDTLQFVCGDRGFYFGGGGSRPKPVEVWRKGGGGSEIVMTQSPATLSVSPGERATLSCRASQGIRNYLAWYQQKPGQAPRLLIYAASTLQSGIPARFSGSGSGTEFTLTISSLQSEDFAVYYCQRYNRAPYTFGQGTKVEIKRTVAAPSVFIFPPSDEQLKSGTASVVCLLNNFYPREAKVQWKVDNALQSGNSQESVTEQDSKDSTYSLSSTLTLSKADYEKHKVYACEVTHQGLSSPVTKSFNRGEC
notes: Undigested; also called anti-TNFα shielded antibody with two different types of protease-cleavable linkers; undigested TAVO190197
As for B4, the binding result is reported as “binds”.

B5: TAVO578585 (antibody, human IgG1, kappa)
heavy: GILEECCFRSCDLALLETYCAGGGGSPLGLAGGGGGSEVQLVESGGVVVQPGGSLRLSCAASGFTFDDYAMHWVRQAPGKGLEWVSAITWNSGHIDYADSVKGRFTISRDNSKNSLYLQMNSLRTEDTALYYCAKVSYLSTASSLDYWGQGTLVTVSSASTKGPSVFPLAPSSKSTSGGTAALGCLVKDYFPEPVTVSWNSGALTSGVHTFPAVLQSSGLYSLSSVVTVPSSSLGTQTYICNVNHKPSNTKVDKKVEPKSCDKTHTCPPCPAPPAAGPSVFLFPPKPKDTLMISRTPEVTCVVVDVSHEDPEVKFNWYVDGVEVHNAKTKPREEQYNSTYRVVSVLTVLHQDWLNGKEYKCKVSNKALPAPIEKTISKAKGQPREPQVYTLPPSRDELTKNQVSLTCLVKGFYPSDIAVEWESNGQPENNYKTTPPVLDSDGSFLLYSKLTVDKSRWQQGNVFSCSVLHEALHSHYTQKSLSLSPGK
light: AYRPSETLCGGELVDTLQFVCGDRGFAFGGGGSPLGLAGGGGGSDIVMTQSPDSLAVSLGERATINCRASQGIRNYLAWYQQKPGQAPKLLIYAASTLQSGVPDRFSGSGSGTDFTLTISSLQAEDVAVYYCQRYNRAPYTFGQGTKVEIKRTVAAPSVFIFPPSDEQLKSGTASVVCLLNNFYPREAKVQWKVDNALQSGNSQESVTEQDSKDSTYSLSSTLTLSKADYEKHKVYACEVTHQGLSSPVTKSFNRGEC
notes: Variant IGF2 mask; ADA-H1 / ADA-L2; also called EAC578/EAC585
Regarding B5, the binding result is reported as “binds”.

B6: TAVO580272 (antibody, human IgG1, kappa)
heavy: GILEECCFRSCDLALLETYCAGGGGSPLGLAGGGGGSEVQLVESGGGLVQPGGSLRLSCAASGFTFDDYAMHWVRQAPGKGLEWVSAITWNSGHIDYADSVKGRFTISRDNSKNTLYLQMNSLRAEDTAVYYCAKVSYLSTASSLDYWGQGTLVTVSSASTKGPSVFPLAPSSKSTSGGTAALGCLVKDYFPEPVTVSWNSGALTSGVHTFPAVLQSSGLYSLSSVVTVPSSSLGTQTYICNVNHKPSNTKVDKKVEPKSCDKTHTCPPCPAPPAAGPSVFLFPPKPKDTLMISRTPEVTCVVVDVSHEDPEVKFNWYVDGVEVHNAKTKPREEQYNSTYRVVSVLTVLHQDWLNGKEYKCKVSNKALPAPIEKTISKAKGQPREPQVYTLPPSRDELTKNQVSLTCLVKGFYPSDIAVEWESNGQPENNYKTTPPVLDSDGSFLLYSKLTVDKSRWQQGNVFSCSVLHEALHSHYTQKSLSLSPGK
light: not shown
notes: Variant IGF2 mask; ADA-H2 / ADA-L1; also called EAC580/EAC272
Consider B6, for which the binding result is reported as “binds”.

B7: TAVO579585 (antibody, human IgG1, kappa)
heavy: GILEECCFRSCDLALLETYCAGGGGSPLGLAGGGGGSEVQLVESGGVVVQPGGSLRLSCAASGFDFADYAMHWVRQAPGKGLEWVSAITWNGGHTDYADSVKGRFTISRDNSKNSLYLQMNSLRTEDTALYYCAKVSYLSTASSLDYWGQGTLVTVSSASTKGPSVFPLAPSSKSTSGGTAALGCLVKDYFPEPVTVSWNSGALTSGVHTFPAVLQSSGLYSLSSVVTVPSSSLGTQTYICNVNHKPSNTKVDKKVEPKSCDKTHTCPPCPAPPAAGPSVFLFPPKPKDTLMISRTPEVTCVVVDVSHEDPEVKFNWYVDGVEVHNAKTKPREEQYNSTYRVVSVLTVLHQDWLNGKEYKCKVSNKALPAPIEKTISKAKGQPREPQVYTLPPSRDELTKNQVSLTCLVKGFYPSDIAVEWESNGQPENNYKTTPPVLDSDGSFLLYSKLTVDKSRWQQGNVFSCSVLHEALHSHYTQKSLSLSPGK
light: AYRPSETLCGGELVDTLQFVCGDRGFAFGGGGSPLGLAGGGGGSDIVMTQSPDSLAVSLGERATINCRASQGIRNYLAWYQQKPGQAPKLLIYAASTLQSGVPDRFSGSGSGTDFTLTISSLQAEDVAVYYCQRYNRAPYTFGQGTKVEIKRTVAAPSVFIFPPSDEQLKSGTASVVCLLNNFYPREAKVQWKVDNALQSGNSQESVTEQDSKDSTYSLSSTLTLSKADYEKHKVYACEVTHQGLSSPVTKSFNRGEC
notes: Variant IGF2 mask; ADA-H1X / ADA-L2; also called EAC579/EAC585
For the molecule B7, the binding result was “binds”.

B8: TAVO578272 (antibody, human IgG1, kappa)
heavy: GILEECCFRSCDLALLETYCAGGGGSPLGLAGGGGGSEVQLVESGGVVVQPGGSLRLSCAASGFTFDDYAMHWVRQAPGKGLEWVSAITWNSGHIDYADSVKGRFTISRDNSKNSLYLQMNSLRTEDTALYYCAKVSYLSTASSLDYWGQGTLVTVSSASTKGPSVFPLAPSSKSTSGGTAALGCLVKDYFPEPVTVSWNSGALTSGVHTFPAVLQSSGLYSLSSVVTVPSSSLGTQTYICNVNHKPSNTKVDKKVEPKSCDKTHTCPPCPAPPAAGPSVFLFPPKPKDTLMISRTPEVTCVVVDVSHEDPEVKFNWYVDGVEVHNAKTKPREEQYNSTYRVVSVLTVLHQDWLNGKEYKCKVSNKALPAPIEKTISKAKGQPREPQVYTLPPSRDELTKNQVSLTCLVKGFYPSDIAVEWESNGQPENNYKTTPPVLDSDGSFLLYSKLTVDKSRWQQGNVFSCSVLHEALHSHYTQKSLSLSPGK
light: not shown
notes: Variant IGF2 mask; ADA-H1 / ADA-L1; also called EAC578/EAC272
Turning to B8, the binding result was “binds”.

B9: TAVO579272 (antibody, human IgG1, kappa)
heavy: GILEECCFRSCDLALLETYCAGGGGSPLGLAGGGGGSEVQLVESGGVVVQPGGSLRLSCAASGFDFADYAMHWVRQAPGKGLEWVSAITWNGGHTDYADSVKGRFTISRDNSKNSLYLQMNSLRTEDTALYYCAKVSYLSTASSLDYWGQGTLVTVSSASTKGPSVFPLAPSSKSTSGGTAALGCLVKDYFPEPVTVSWNSGALTSGVHTFPAVLQSSGLYSLSSVVTVPSSSLGTQTYICNVNHKPSNTKVDKKVEPKSCDKTHTCPPCPAPPAAGPSVFLFPPKPKDTLMISRTPEVTCVVVDVSHEDPEVKFNWYVDGVEVHNAKTKPREEQYNSTYRVVSVLTVLHQDWLNGKEYKCKVSNKALPAPIEKTISKAKGQPREPQVYTLPPSRDELTKNQVSLTCLVKGFYPSDIAVEWESNGQPENNYKTTPPVLDSDGSFLLYSKLTVDKSRWQQGNVFSCSVLHEALHSHYTQKSLSLSPGK
light: not shown
notes: Variant IGF2 mask; ADA-H1X / ADA-L1; also called EAC579/EAC272
For B9, the binding result was “binds”.

B10: TAVO584272 (antibody, human IgG1, kappa)
heavy: GILEECCFRSCDLALLETYCAGGGGSPLGLAGGGGGSQVQLVESGGGVVQPGGSLRLSCAASGFDFADYAMHWVRQAPGKGLEWVSAITWNGGHTDYADSVKGRFTISRDNSKNTLYLQMNSLRAEDTAVYYCAKVSYLSTASSLDYWGQGTLVTVSSASTKGPSVFPLAPSSKSTSGGTAALGCLVKDYFPEPVTVSWNSGALTSGVHTFPAVLQSSGLYSLSSVVTVPSSSLGTQTYICNVNHKPSNTKVDKKVEPKSCDKTHTCPPCPAPPAAGPSVFLFPPKPKDTLMISRTPEVTCVVVDVSHEDPEVKFNWYVDGVEVHNAKTKPREEQYNSTYRVVSVLTVLHQDWLNGKEYKCKVSNKALPAPIEKTISKAKGQPREPQVYTLPPSRDELTKNQVSLTCLVKGFYPSDIAVEWESNGQPENNYKTTPPVLDSDGSFLLYSKLTVDKSRWQQGNVFSCSVLHEALHSHYTQKSLSLSPGK
light: not shown
notes: Variant IGF2 mask; ADA-H4X / ADA-L1; also called EAC584/EAC272
In the case of B10, the binding result is “binds”.
